Test results from US20250213694A1 (SHANGHAI SIMNOVA BIOTECHNOLOGY, published 2025).

B1: GPRC5D-mab03 (antibody, V domains shown)
VH: QAYLQQSGAELVRPGASVKMSCKASGYTFTSYNMNWVKQTPRQGLEWIGAIYPGNGDTSYNQKFKGKATLTVDKSSSTAYMQLSSLTSEDSAVYFCARVRLRYAMDYWGQGTSVTVSS
VL: DIVMTQSQKFMSTTVGDRVTITCKASQNVGTAVAWYQQKPGQSPKLLISSASNRYTGVPERFTGSGSGTDFTLTIRNMQSEDLADYFCQQYSSYPWTFGGGTELEIK
notes: Murine variable regions; Screened as a chimeric antibody containing the constant region of human IgG1
B2: GPRC5D-mab06 (antibody, V domains shown)
VH: QVQLKQSGPGLVQPSQSLSITCTVSGFSLTSYGVNWIRQSPGKGLEWLGVIWSGGNTDYNAAFRSRLSISKDNSKSQVFFKMNSLQADDTAIYYCARGQLGRPYWYFDVWGTGTSVTVSS
VL: DIVMTQSHKFMSTSVGDRVSITCKASQDVRTAVAWYQQKPGQSPKLLIYWASTRHTGVPDRFTGSRSGTDYTLTISSVQAEDLALYYCQQHYSTPLTFGAGTKLELK
notes: as for B1

Target: T1, human GPRC5D on GPRC5D-overexpressing cells (human, UniProt Q9NZD1 1-345)
T1 construct: whole, on cells; also called also tested on NCI-H929 cells
T1 sequence (Q9NZD1 whole entry): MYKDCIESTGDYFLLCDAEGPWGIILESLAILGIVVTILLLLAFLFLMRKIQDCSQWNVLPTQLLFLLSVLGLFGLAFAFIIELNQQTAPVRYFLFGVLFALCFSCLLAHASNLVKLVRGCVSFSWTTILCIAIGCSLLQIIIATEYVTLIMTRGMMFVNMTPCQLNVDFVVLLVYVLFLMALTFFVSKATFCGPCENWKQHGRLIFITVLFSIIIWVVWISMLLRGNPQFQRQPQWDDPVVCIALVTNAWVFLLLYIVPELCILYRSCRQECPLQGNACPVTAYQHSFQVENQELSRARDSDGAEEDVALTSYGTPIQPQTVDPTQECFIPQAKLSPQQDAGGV
Assay: cell-based ELISA and FACS on human GPRC5D-overexpressing cells and NCI-H929 cells; chimeric human IgG1 format

| Binder | binding result |
| --- | --- |
| B1 | binds |
| B2 | binds |
